# Experimental data reported in publication doi:10.1101/2020.02.10.941963.
# Where two headings read alike, the source gives them in different places.
# T1: Rv1019 (TetR family regulator) (Mycobacterium tuberculosis H37Rv) (UniProt P96381)
# T1 sequence: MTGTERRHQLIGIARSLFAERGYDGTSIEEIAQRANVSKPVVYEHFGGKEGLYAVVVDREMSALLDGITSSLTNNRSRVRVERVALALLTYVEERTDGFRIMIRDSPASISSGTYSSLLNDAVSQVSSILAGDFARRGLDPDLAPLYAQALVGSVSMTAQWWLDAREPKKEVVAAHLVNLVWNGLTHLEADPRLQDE
# T2: Rv1019 (TetR family regulator) (Mycobacterium tuberculosis H37Rv, UniProt P96381 1-197)
# T2 sequence: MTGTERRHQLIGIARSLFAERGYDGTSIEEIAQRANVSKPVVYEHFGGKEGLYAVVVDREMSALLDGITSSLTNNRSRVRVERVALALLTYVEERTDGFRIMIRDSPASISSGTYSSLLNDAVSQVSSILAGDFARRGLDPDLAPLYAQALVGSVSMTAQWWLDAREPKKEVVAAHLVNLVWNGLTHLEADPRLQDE
# Tests used:
# [1] = molecular target: T1, Rv1019 (TetR family regulator) (Mycobacterium tuberculosis H37Rv); experiment: EMSA
# [2] = molecular target: Rv1019, putative TetR family transcriptional regulator of Mycobacterium tuberculosis H37Rv (Mycobacterium tuberculosis H37Rv); experiment: cross-linking
# [3] = molecular target: Rv1019, putative TetR family transcriptional regulator of Mycobacterium tuberculosis H37Rv (Mycobacterium tuberculosis H37Rv); experiment: native gel or EMSA
# [4] = molecular target: T2, Rv1019 (TetR family regulator); experiment: EMSA
# [5] = molecular target: T2, Rv1019 (TetR family regulator); experiment: EMSA; remark: listed apart in the source
molecule,measurement,setting,value
"CCTGGCGCGCGTCACCCGCGTCGGGTTTTCCGGCGCCTTATCCGGCCCTTTATCCGGTCCGGCCACATCAACAAGGGTATCGGTTTGCGTGGGGCCGGTGGGTAGACGGCGACAGCGTTGACTGTGCTGACGGCGTTGACACCGTCTAAAGTCACATCGATGTGCAATCCGTCGTGGTGTAATCGGCAGCACCTCTGATTTTGGTTCAGATAGTTCAGGTTCGAGTCCTGGCGACGGAGCTTCAAGGAGGGTTGATGACGTTTCCTGGTGACACCGCGGTCCTGGTCCTAGCGGCCGGGC (double strand) [Fragment I, Rv1019 upstream -300 to -1]",binding,[1],binds
"Rv1019, putative TetR family transcriptional regulator of Mycobacterium tuberculosis H37Rv (natural protein)",stoichiometry N,[2],2
same,stoichiometry N,[3],2
Rv1019 18 bp inverted repeat (Palindrome Oligo S1/S2) (dsDNA) DNA 1: TGACTTTAGACGGTGTCAACGCCGTCAGCACAGT DNA 2: ACTGTGCTGACGGCGTTGACACCGTCTAAAGTCA,binding result,[4],binds
M. smegmatis cognate site (MS Pal S1/S2) (dsDNA) DNA 1: GGCTTGACGTGCGCGAACCGTCGAAAG DNA 2: CTTTCGACGGTTCGCGCACGTCAAGCC,binding result,[5],binds
